In the supplement of paper PMC12764529:
± gives the half width of the 95% confidence interval.

Columns and labels:
[1] = folding stability dG unfold (combined trypsin and chymotrypsin); higher = more stable
In short: (§1)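 Unfolding free energy was derived, per protease or combined, against a sequence-predicted unfolded-state K50 and a shared folded-state K50, starting from K50 inferred by Bayesian fitting of sequencing counts. Digestion with trypsin and chymotrypsin was carried out on designed mini-proteins under 80 residues without cysteine in a PA-tagged cDNA display construct. Only designs with AlphaFold2 dimer inter-PAE above 15 were kept.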

[2] = folding stability dG unfold from chymotrypsin proteolysis; higher = more stable
In short: as §1

[3] = folding stability dG unfold from trypsin proteolysis; higher = more stable
In short: as §1

Sequence	folding stability dG unfold [1] [kcal/mol]	folding stability dG unfold [2] [kcal/mol]	folding stability dG unfold [3] [kcal/mol]
SAGGSAGVLEAVVFNPETGTFSVIPAAVLEKAFAANPADTELTFTLKDKPVKVFVFPGPGLAVVTGSAGGSA [r15_350_TrMRF]	1.45 ± 0.053	1.56 ± 0.061	1.14 ± 0.018
SAGGSAGVPPGGRVRVLVYNPLTGEVREVELPVGSLEEFLRGANLPAPLPDGRPAPVVVEILEVEPSAGGSA [r15_797_TrMRF]	2.64 ± 0.36	3.11 ± 0.081	1.77 ± 0.14
SAGGSAIDPRLLKLPKVKVEILSVEPVTGEDDKPFFVAKVKTDLEPGFYAYIILDPETGKIVKVFDSAGGSA [r15_66_TrMRF]	1.4 ± 0.072	1.57 ± 0.093	1.19 ± 0.038
SAGGSAIEIEPAPDNVLVVTADLPPNVPAEKLVEALKDLIPDVEFETSSSADGRHVIVLRLPPDVFSAGGSA [r15_1047_TrMRF]	1.05 ± 0.07	0.961 ± 0.06	1.05 ± 0.044
SAGGSAIENQFLRITMYHGNKPHTWTFPIKKVDIDPEDGNIEVYFPPEFRELFGGPMRITDIEFPPSAGGSA [r15_710_TrROS]	1.46 ± 0.067	1.63 ± 0.071	1.14 ± 0.019
SAGGSAIKLPSGVKIEFKKTEDGKYIVRVTLPDGKPIELEFEGDPEGPNNITPEEINDAILEKIKSSAGGSA [r15_780_TrMRF]	3.06 ± 0.081	3.23 ± 0.056	2.67 ± 0.11
SAGGSAIVIPVKSWEEFVEALKNAPASVEIIADLPDGNVIKAKIDPSKGPKIIITEVFPVPPELAGSAGGSA [r15_577_TrMRF]	0.859 ± 0.11	1.06 ± 0.053	0.515 ± 0.036
SAGGSAIWIPADEIRELAKEPGLEVEKEPQPDGMLHFTIKNPKNGKRITIVVWDPENGWWHIMPIPSAGGSA [r15_442_TrROS]	0.928 ± 0.083	0.854 ± 0.098	0.947 ± 0.019
SAGGSAKEALVKAVEELFKKLFPDEPIEVLKVDPEKGRITIKVNSDEARKALEKALKELGIEVDLDSAGGSA [r15_196_TrMRF]	3.34 ± 0.11	2.91 ± 0.092	3.75 ± 0.11
SAGGSAKGKKTRTITIMAPFDNKEEAREQAEEIADNIMNNLPDDMKIKVEVSWNPEDNYVMATIRISAGGSA [r15_981_TrROS]	0.707 ± 0.25	0.842 ± 0.11	0.404 ± 0.3
SAGGSAKIEEIASLPAEEIAEAFGLTVISATVERFEDGTVVLTVEIAPPLGPPIRVTFVFGVDPEKSAGGSA [r15_805_TrMRF]	3.75 ± 0.058	4.19 ± 0.061	2.21 ± 0.045
SAGGSAKIEIERIEPRPVLVPRPDGSLVPVPEVEVELRIEGDPEKMEEEERKKIEALAEEIAKELGSAGGSA [r2_40_TrMRF]	0.428 ± 0.16	0.736 ± 0.056	-0.508 ± 0.16
SAGGSAKIEITIFIPGMSEEEVKKLAEELAEELRKKGLSDEEIKEIKIKVYKVPVYKTEDGKLVKVSAGGSA [r15_684_TrROS_Hall]	1.44 ± 0.089	1.82 ± 0.059	0.884 ± 0.046
SAGGSAKITIEKVDDQYRITVTVPVYDENGNKVPLTFDFVYPSDDPDAFLDDVIRRIRELNPDLEKSAGGSA [r15_1050_TrMRF]	2.77 ± 0.1	3.01 ± 0.084	2.3 ± 0.073
SAGGSAKITIKPGETITITIKLENGETVEIRMRVEELPDGTYKITMEITYPDGSKIEMELTLKIKPSAGGSA [r15_476_TrROS_Hall]	4.05 ± 0.44	4.43 ± 0.18	2.58 ± 0.21
SAGGSAKKIKIFSLEELRERFPDLSEEELKKRAEELAKELAERLKEEGKPVEVEIVEVKLPEEEKKSAGGSA [r15_287_TrROS_Hall]	1.69 ± 0.094	2.107 ± 0.015	0.382 ± 0.13

Sequence	folding stability dG unfold [1] [kcal/mol]	folding stability dG unfold [2] [kcal/mol]	folding stability dG unfold [3] [kcal/mol]
SAGGSAKKKIKIKVKNKDGSVYELEFDEENGIVKITYKDGKKEELSVEELKKLPLPKNITEVEIVPSAGGSA [r15_1043_TrROS_Hall]	2.25 ± 0.059	2.59 ± 0.036	1.57 ± 0.043
SAGGSAKKKKVTITIEVVKNKETGEYLVRIKIKVDGKEYEIVMSEDELKALIDAGVKIEKIEVYPRSAGGSA [r15_783_TrROS_Hall]	2.59 ± 0.1	2.99 ± 0.082	1.6 ± 0.017
SAGGSAKKKVTITVEKKGDKYLVTIEVDGKTVVIEVPKDTTIEEIAAALPPGAKIKEIKVVKAEELSAGGSA [r15_1058_TrROS_Hall]	1.16 ± 0.067	1.33 ± 0.031	0.716 ± 0.034
SAGGSAKKLPAEAVAKELAERLSKELGLTIKRVEVEVIDPEKGLVRVTVVYETPYGYLKREILLPVSAGGSA [r15_32_TrMRF]	3.31 ± 0.1	3.825 ± 0.033	1.83 ± 0.026
SAGGSAKKPKWIPIKIKLPGSLEEAREWAEEIAKWLAKQNGDIKIDAIKYERDPNGHVEVTIQVRVSAGGSA [r15_718_TrROS]	3.36 ± 0.086	3.83 ± 0.059	2.36 ± 0.066
SAGGSAKKTLKIKVKTPKGGLKTIEIPDSVKKIDIIPGKDYVKIIIYNPKTKKKIELPPFKVIEISSAGGSA [r15_133_TrMRF]	1.79 ± 0.086	2.01 ± 0.031	1.26 ± 0.047
SAGGSAKKYIVLAKIKEVKVTKTYKTKNGKKVKVTVKVEIKVEPVKVFKIKKDKNGNWKIEPGEVLSAGGSA [r15_162_TrROS_Hall]	3.14 ± 0.28	2.88 ± 0.14	2.96 ± 0.15
SAGGSAKMKITVEKNEDGELYVLIEVDSVEELEEALKKLPGIEKVEVEVFVDEETKRVYILVRVKPSAGGSA [r15_344_TrROS_Hall]	3.26 ± 0.064	3.62 ± 0.045	2.36 ± 0.071
SAGGSAKPEKVIVLEIEIEMTPEEVKKLVEELLKEKFGVEIERIEVEVERLPDGTLKVRVRVVIRESAGGSA [r15_138_TrROS_Hall]	3.17 ± 0.084	2.94 ± 0.12	3.31 ± 0.13
SAGGSAKPKIEIEVEKLEGVKEGDTIEVKIKFPNGFIIKIEAKVKRVDGKLVIEVTKVEVIPKEDLSAGGSA [r15_636_TrROS_Hall]	3.16 ± 0.3	3.17 ± 0.2	2.7 ± 0.14
SAGGSAKPKITITVTYDKETNTVTVTITFPDGTTLTITVEAETEEEAKKAAKKLVEELLKKLEELESAGGSA [r15_477_TrROS_Hall]	3.52 ± 0.23	3.4 ± 0.2	3.46 ± 0.27
SAGGSAKPVIVKIHFPNMKPEKILELAKEFGAVPLKMDPNKGVAIVLATEEKVEEIAAKGNFKIEASAGGSA [r15_731_TrMRF]	0.515 ± 0.26	0.205 ± 0.39	0.736 ± 0.043
SAGGSAKPVMVRIKFPNMPPEKLQDAFQEYGMQPQNMDPNKGEMIIMIPWEAAEEIQDKNGFKIEISAGGSA [r15_731_TrROS]	0.323 ± 0.24	0.8 ± 0.17	-0.489 ± 0.16
SAGGSAKTITIYAPDLPLSEAIETLERLIKELGLTPVSVSVSYNPETGTVTITVTLPNGDTLTLHVSAGGSA [r15_958_TrMRF]	2.99 ± 0.079	3.37 ± 0.046	2.18 ± 0.058
SAGGSAKTKVIEIEIDLSPEEIEELAKKLKEEGKVEEVKVEYDEKTGKVKVTVVVRDKNGEWKKLSSAGGSA [r15_177_TrROS_Hall]	0.556 ± 0.15	-0.0755 ± 0.48	0.854 ± 0.066
